Results from US20240116985A1 (published 2024).
Starred links: 1 amine or outer side, 2 acyl side, 3 side chain; linkers in the order of their positions; H or OH if unused. Positions of bridges follow the written chain, without caps; N, C: chain ends. Non-standard residues stand in square brackets, D forms with d. Primed or numbered codes have the meaning given here. (CMe2CO2H)TriAzDap = (S)-2-amino-3-(4-(2-carboxypropan-2-yl)-1H-1,2,3-triazol-1-yl)propanoic acid, CC(C)(C(=O)[*:3])c1cn(C[C@H](N[*:1])C(=O)[*:2])nn1; PyrS2″ = (S)-3-amino-1-((pent-4-en-1-yloxy)carbonyl)pyrrolidine-3-carboxylic acid (stapling residue), C=CCCCOC(=O)N1CC[C@@](N[*:1])(C(=O)[*:2])C1; (2COOHPh)TriAzDap = (S)-2-(1-(2-amino-2-carboxyethyl)-1H-1,2,3-triazol-4-yl)benzoic acid, O=C([C@H](Cn1cc(-c2ccccc2C(=O)[*:3])nn1)N[*:1])[*:2]; B5(4) = 2,2-bis(4-pentenyl)glycine = 2-amino-2-(pent-4-en-1-yl)hept-6-enoic acid (stitching residue), C=CCCCC(CCCC=C)(N[*:1])C(=O)[*:2]; (2COOH4NH2Ph)Dap = (S)-5-amino-2-((2-amino-2-carboxyethyl)amino)benzoic acid, Nc1ccc(NC[C@H](N[*:1])C(=O)[*:2])c(C(=O)[*:3])c1; B5(3) = 2,2-bis(4-pentenyl)glycine (stitching residue), C=CCCCC(CCCC=C)(N[*:1])C(=O)[*:2]; Phe(3-COOH) = N[C@@H](Cc1cccc(C(=O)O)c1)C(=O)O; 2F3MeF = Cc1cccc(C[C@H](N[*:1])C(=O)[*:2])c1F; Phe(2-CF3) = N[C@@H](Cc1ccccc1C(F)(F)F)C(=O)O; Phe(2-Cl) = N[C@@H](Cc1ccccc1Cl)C(=O)O; Met(O2) = CS(=O)(=O)CC[C@H](N)C(=O)O; Bta = N[C@@H](Cc1csc2ccccc12)C(=O)O; Lys(iPr) = CC(C)NCCCC[C@H](N)C(=O)O; αAllylPro = C=CC[C@@]1(C(=O)O)CCCN1; tBuAla = CC(C)(C)C[C@H](N)C(=O)O; 3Thi = N[C@@H](Cc1ccsc1)C(=O)O; Cha = N[C@@H](CC1CCCCC1)C(=O)O; PyrS2(4) = not defined here; hSer = N[C@@H](CCO)C(=O)O; Nle = CCCC[C@H](N)C(=O)O

T1: B-cat-Halo (beta-catenin HaloTag construct expressed in HEK293 cells) (UniProt P35222 1-781)
T1 sequence (looked up): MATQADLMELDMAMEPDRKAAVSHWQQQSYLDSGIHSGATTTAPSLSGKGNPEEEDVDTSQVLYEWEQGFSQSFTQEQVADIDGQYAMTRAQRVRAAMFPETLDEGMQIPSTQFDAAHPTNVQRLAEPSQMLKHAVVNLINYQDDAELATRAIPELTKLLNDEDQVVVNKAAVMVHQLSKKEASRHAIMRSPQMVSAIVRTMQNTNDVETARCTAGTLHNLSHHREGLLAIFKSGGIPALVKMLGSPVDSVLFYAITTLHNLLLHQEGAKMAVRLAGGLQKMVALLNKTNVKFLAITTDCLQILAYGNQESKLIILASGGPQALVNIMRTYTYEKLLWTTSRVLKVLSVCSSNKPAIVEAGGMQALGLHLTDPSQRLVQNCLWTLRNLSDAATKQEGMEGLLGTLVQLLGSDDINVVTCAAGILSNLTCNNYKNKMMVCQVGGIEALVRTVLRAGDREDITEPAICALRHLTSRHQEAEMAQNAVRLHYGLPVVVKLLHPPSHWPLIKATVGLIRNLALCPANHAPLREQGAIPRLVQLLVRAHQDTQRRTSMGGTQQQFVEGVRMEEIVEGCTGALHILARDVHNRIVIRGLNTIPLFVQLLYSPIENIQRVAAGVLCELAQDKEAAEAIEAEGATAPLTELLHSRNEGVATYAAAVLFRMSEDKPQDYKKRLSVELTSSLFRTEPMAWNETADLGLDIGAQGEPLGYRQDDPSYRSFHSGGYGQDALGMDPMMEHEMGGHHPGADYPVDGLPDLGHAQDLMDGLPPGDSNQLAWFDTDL

T2: B-cat-Halo (UniProt P35222 1-781, HaloTag NanoBRET 618 Ligand bound in the assay)
T2 sequence (looked up): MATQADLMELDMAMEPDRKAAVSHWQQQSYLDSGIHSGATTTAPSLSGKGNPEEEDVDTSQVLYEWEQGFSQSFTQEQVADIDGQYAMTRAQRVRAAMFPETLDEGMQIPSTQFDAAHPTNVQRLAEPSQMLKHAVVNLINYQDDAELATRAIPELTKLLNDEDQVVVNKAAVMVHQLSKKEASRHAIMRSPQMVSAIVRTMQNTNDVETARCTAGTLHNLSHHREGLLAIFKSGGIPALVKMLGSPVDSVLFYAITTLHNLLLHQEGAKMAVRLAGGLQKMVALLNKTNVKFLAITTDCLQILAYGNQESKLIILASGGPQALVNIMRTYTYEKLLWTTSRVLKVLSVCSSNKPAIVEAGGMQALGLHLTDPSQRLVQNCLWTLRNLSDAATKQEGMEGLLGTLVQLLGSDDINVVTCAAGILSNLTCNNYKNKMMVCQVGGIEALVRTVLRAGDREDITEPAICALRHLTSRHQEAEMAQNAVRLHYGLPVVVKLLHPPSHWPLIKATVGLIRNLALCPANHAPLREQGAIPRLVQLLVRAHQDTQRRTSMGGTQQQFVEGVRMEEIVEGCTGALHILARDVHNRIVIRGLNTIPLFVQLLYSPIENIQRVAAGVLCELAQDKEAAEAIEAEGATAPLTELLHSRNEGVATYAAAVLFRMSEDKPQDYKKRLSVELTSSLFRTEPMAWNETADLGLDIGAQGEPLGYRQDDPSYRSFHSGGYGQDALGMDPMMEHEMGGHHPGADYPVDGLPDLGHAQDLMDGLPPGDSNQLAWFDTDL

T3: Bcat-Halo (UniProt P35222 1-781)
T3 sequence (looked up): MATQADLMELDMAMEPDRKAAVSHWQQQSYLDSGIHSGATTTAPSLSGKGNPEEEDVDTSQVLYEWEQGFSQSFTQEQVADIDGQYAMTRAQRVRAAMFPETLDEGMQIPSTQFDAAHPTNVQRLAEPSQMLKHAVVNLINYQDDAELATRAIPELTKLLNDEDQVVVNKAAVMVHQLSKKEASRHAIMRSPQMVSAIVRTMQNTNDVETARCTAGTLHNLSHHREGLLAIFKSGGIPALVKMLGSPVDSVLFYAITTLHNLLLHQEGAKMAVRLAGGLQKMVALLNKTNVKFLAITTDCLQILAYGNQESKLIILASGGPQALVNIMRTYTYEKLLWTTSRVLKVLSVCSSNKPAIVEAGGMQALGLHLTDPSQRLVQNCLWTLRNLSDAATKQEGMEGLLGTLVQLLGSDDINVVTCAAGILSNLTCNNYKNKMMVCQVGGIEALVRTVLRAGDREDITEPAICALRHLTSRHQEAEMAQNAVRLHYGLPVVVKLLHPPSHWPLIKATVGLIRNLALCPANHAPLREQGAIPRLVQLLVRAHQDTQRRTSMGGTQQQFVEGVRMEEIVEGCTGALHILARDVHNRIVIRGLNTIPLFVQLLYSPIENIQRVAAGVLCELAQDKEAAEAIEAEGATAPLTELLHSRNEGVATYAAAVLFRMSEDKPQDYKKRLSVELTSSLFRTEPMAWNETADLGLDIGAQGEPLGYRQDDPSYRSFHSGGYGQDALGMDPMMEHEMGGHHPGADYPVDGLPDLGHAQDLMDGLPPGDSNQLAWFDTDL


Target: T1, B-cat-Halo (beta-catenin HaloTag …)
Assay: cell-based or functional assay

NanoBRET Abs IC50 [µM] | Binder
3.5 | Ac-[αAllylPro]D[tBuAla][B5(4)]D[Phe(3-COOH)]AAFL[PyrS2″][Phe(2-CF3)][Bta][Met(O2)]-NH2 (staple 1-4, 4-11) [I-2063]
8.3 | Ac-[αAllylPro]D[tBuAla][B5(3)]D[Phe(3-COOH)]TAFL[PyrS2″][3Thi][Bta]A-NH2 (staple 1-4, 4-11) [I-2051]
> 20 | Ac-[αAllylPro]N[Cha][B5(4)]DQQAFN[PyrS2″]F[Bta][hSer]-NH2 (staple 1-4, 4-11) [I-2067]
11.8 | Ac-[αAllylPro]D[tBuAla][B5(4)]D[Phe(3-COOH)][Met(O2)]AFL[PyrS2″][3Thi][Bta]A-NH2 (staple 1-4, 4-11) [I-2064]
> 20 | Ac-[αAllylPro]N[Cha][B5(4)]DQ[Lys(iPr)]AFN[PyrS2″]F[Bta]F-NH2 (staple 1-4, 4-11) [I-2068]
> 20 | Ac-[αAllylPro]N[Cha][B5(4)]DQQAFN[PyrS2″]F[Bta]A-NH2 (staple 1-4, 4-11) [I-2070]
5 | Ac-[αAllylPro]D[tBuAla][B5(3)]D[Phe(3-COOH)]QAFA[PyrS2(4)][3Thi][Bta]A-NH2 (staple 1-4, 4-11; reading uncertain; also: printed as Ac-PL3-Asp-Npg-B5-Asp-3COOHF-Gln-Ala-Phe-Ala-PyrS2-3Thi-BztA-Ala-NH2) [I-2053]
10.5 | Ac-[αAllylPro]D[tBuAla][B5(4)]D[Phe(3-COOH)]QAFL[PyrS2(4)][3Thi][Bta]V-NH2 (staple 1-4, 4-11; reading uncertain; also: printed as Ac-PL3-Asp-Npg-B5-Asp-3COOHF-Gln-Ala-Phe-Leu-PyrS2-3Thi-BztA-Val-NH2) [I-2055]
> 20 | Ac-[αAllylPro]N[Cha][B5(4)]DQHAFN[PyrS2″]F[Bta]A-NH2 (staple 1-4, 4-11) [I-2069]
> 20 | Ac-[αAllylPro]N[Cha][B5(4)]DQ[Lys(iPr)]AFN[PyrS2″]F[Bta]A-NH2 (staple 1-4, 4-11) [I-2065]
3.9 | Ac-[αAllylPro]D[tBuAla][B5(4)]D[Phe(3-COOH)]NAFL[PyrS2″][Phe(2-CF3)][Bta]A-NH2 (staple 1-4, 4-11) [I-2058]
3 | Ac-[αAllylPro]D[tBuAla][B5(4)]D[Phe(3-COOH)]AAFL[PyrS2″][Phe(2-Cl)][Bta][Met(O2)]-NH2 (staple 1-4, 4-11) [I-2062]
6 | Ac-[αAllylPro]D[tBuAla][B5(3)]D[Phe(3-COOH)]QAFF[PyrS2″][3Thi][Bta]A-NH2 (staple 1-4, 4-11) [I-2052]
4.8 | Ac-[αAllylPro]D[tBuAla][B5(4)]D[Phe(3-COOH)]SAFL[PyrS2″][Phe(2-CF3)][Bta]A-NH2 (staple 1-4, 4-11) [I-2059]
9.6 | Ac-[αAllylPro]D[tBuAla][B5(4)]D[Phe(3-COOH)]TAFL[PyrS2″][Phe(2-CF3)][Bta]A-NH2 (staple 1-4, 4-11) [I-2060]
6.5 | Ac-[αAllylPro]D[tBuAla][B5(4)]D[Phe(3-COOH)]QAFL[PyrS2″][3Thi][Bta]L-NH2 (staple 1-4, 4-11) [I-2056]
2.4 | Ac-[αAllylPro]D[tBuAla][B5(4)]D[Phe(3-COOH)]QAFV[PyrS2″][3Thi][Bta]A-NH2 (staple 1-4, 4-11) [I-2054]

Target: T2, B-cat-Halo
Assay: cell-based or functional assay

NanoBRET Abs IC50 [µM] | Binder
4.4 | Ac-[αAllylPro]D[tBuAla][B5(4)]D[Phe(3-COOH)]AAFF[PyrS2″][Phe(2-CF3)][Bta][Me2Gln]-NH2 (staple 1-4, 4-11) [I-2534]
6.2 | Ac-[αAllylPro]D[tBuAla][B5(4)]D[Phe(3-COOH)]AAF[Nle][PyrS2″][2F3MeF][Bta][Me2Gln]-NH2 (staple 1-4, 4-11) [I-2533]
3.7 | Ac-[αAllylPro]D[tBuAla][B5(4)]D[Phe(3-COOH)]AAF[Me2Gln][PyrS2″][2F3MeF][Bta][Me2Gln]-NH2 (staple 1-4, 4-11; not fully specified; printed as Ac-PL3-Asp-Npg-B5-Asp-3COOHF-Ala-Ala-Phe-Me2Gln-PyrS2-2F3MeF-BztA-Me2Gln-NH2) [I-2535]

Target: T3, Bcat-Halo
Assay: cell-based or functional assay

NanoBRET Abs IC50 [µM] | Binder
10.5 | Ac-[αAllylPro]D[tBuAla][B5(4)]D[Phe(3-COOH)]AAFF[PyrS2″][2F3MeF][Bta][dA]-NH2 (staple 1-4, 4-11) [I-2095]
9.7 | Ac-[αAllylPro]D[tBuAla][B5(4)]D[Phe(3-COOH)]AAFF[PyrS2(4)][3Thi][Bta][dA]-NH2 (staple 1-4, 4-11; reading uncertain) [I-2094]
2.9 | Ac-[αAllylPro]D[tBuAla][B5(4)]D[Phe(3-COOH)]AAFL[PyrS2(4)][2F3MeF][Bta][dQ]-NH2 (staple 1-4, 4-11; reading uncertain) [I-2089]
6.2 | Ac-[αAllylPro]D[tBuAla][B5(4)]D[(CMe2CO2H)TriAzDap]AAFL[PyrS2″][3Thi][Bta]Q-NH2 (staple 1-4, 4-11) [I-2085]
5 | Ac-[αAllylPro]D[tBuAla][B5(4)]D[Phe(3-COOH)]AAFF[PyrS2″][Phe(2-CF3)][Bta][dQ]-NH2 (staple 1-4, 4-11) [I-2093]
6.5 | Ac-[αAllylPro]D[tBuAla][B5(4)]D[(2COOH4NH2Ph)Dap]AAFL[PyrS2″][3Thi][Bta]Q-NH2 (staple 1-4, 4-11) [I-2087]
5.9 | Ac-[αAllylPro]D[tBuAla][B5(4)]D[Phe(3-COOH)]AAFL[PyrS2(4)][3Thi][Bta][dA]-NH2 (staple 1-4, 4-11; reading uncertain) [I-2090]
4.4 | Ac-[αAllylPro]D[tBuAla][B5(4)]D[Phe(3-COOH)]AAFF[PyrS2″][3Thi][Bta][dQ]-NH2 (staple 1-4, 4-11) [I-2092]
4.4 | Ac-[αAllylPro]D[tBuAla][B5(4)]D[Phe(3-COOH)]AAFL[PyrS2″][3Thi][Bta][dQ]-NH2 (staple 1-4, 4-11) [I-2088]
16.4 | Ac-[αAllylPro]D[tBuAla][B5(4)]D[(2COOHPh)TriAzDap]AAFL[PyrS2″][3Thi][Bta]Q-NH2 (staple 1-4, 4-11) [I-2086]
6.2 | Ac-[αAllylPro]D[tBuAla][B5(4)]D[Phe(3-COOH)]AAFL[PyrS2″][Phe(2-CF3)][Bta][dA]-NH2 (staple 1-4, 4-11) [I-2091]
